B1: I-441 (peptide)
peptide: Ac-[αAllylPro]DA[B5(21)]DEAAFN[S8][Phe(2-NO2)][Bta]Q-NH2
modifications: staple 1-4, 4-11
notes: Stapled (stitched) peptide with non-natural residues
B2: I-454 (peptide)
peptide: Ac-[αAllylPro]DA[B5(21)]DEAA[Phe(3-F)]N[S8]F[Bta]Q-NH2
modifications: staple 1-4, 4-11
notes: as for B1
B3: I-469 (peptide)
peptide: Ac-[αAllylPro]DI[B5(6)]DDAAFN[S8]F[Bta]H-NH2
modifications: staple 1-4, 4-11; also: staple isomer composition: earlier-eluting HPLC peak
notes: Staple isomer composition: earlier-eluting HPLC peak
B4: I-467 (peptide)
peptide: Ac-[αAllylPro]DI[B5(6)]DDAAFN[S8]F[Bta]Q-NH2
modifications: staple 1-4, 4-11; also: staple isomer composition: earlier-eluting HPLC peak
notes: as for B3
B5: I-468 (peptide)
peptide: Ac-[αAllylPro]DI[B5(6)]DDAAFN[S8]F[Bta]Q-NH2
modifications: staple 1-4, 4-11; also: staple isomer composition: later-eluting HPLC peak
notes: Staple isomer composition: later-eluting HPLC peak
B6: I-434 (peptide)
peptide: Ac-[αAllylPro]DA[B5(24)]DEAAFN[S8][Phe(2-F)][Bta]Q-NH2
modifications: staple 1-4, 4-11
notes: as for B1
B7: I-433 (peptide)
peptide: Ac-[αAllylPro]DA[B5(24)]DEAAF[S(OMe)][S8]F[Bta]Q-NH2
modifications: staple 1-4, 4-11
notes: as for B1
B8: I-440 (peptide)
peptide: XDAXDEAAFNXHXQ
modifications: not fully specified; Ac-PL3-Asp-Ala-B5-Asp-Glu-Ala-Ala-Phe-Asn-S8-1meH-BztA-Gln-NH2; N-terminal acetyl, C-terminal amide; stapled PL3(1)-B5(4) and B5(4)-S8(11) by olefin metathesis
notes: as for B5
B9: I-438 (peptide)
peptide: Ac-[αAllylPro]DA[B5(26)]DEAAFN[S8][His(π-Me)][Bta]Q-NH2
modifications: staple 1-4, 4-11
notes: as for B1
B10: I-439 (peptide)
peptide: Ac-[αAllylPro]DA[B5(21)]DEAAFN[S8][His(τ-Me)][Bta]Q-NH2
modifications: staple 1-4, 4-11
notes: as for B3
B11: I-455 (peptide)
peptide: Ac-[αAllylPro]DA[B5(21)]DEAA[Phe(4-F)]N[S8]F[Bta]Q-NH2
modifications: staple 1-4, 4-11
notes: as for B1
B12: I-437 (peptide)
peptide: Ac-[αAllylPro]DA[B5(24)]DEAAFN[S8][Phe(2-OMe)][Bta]Q-NH2
modifications: staple 1-4, 4-11
notes: as for B1
B13: I-464 (peptide)
peptide: Ac-[αAllylPro]DA[B5(21)]DEAAFN[PyrS3″]F[Bta]Q-NH2
modifications: staple 1-4, 4-11; not fully specified; printed as Ac-PL3-Asp-Ala-B5-Asp-Glu-Ala-Ala-Phe-Asn-PyrS3-Phe-BztA-Gln-NH2
notes: as for B5
B14: I-435 (peptide)
peptide: Ac-[αAllylPro]DA[B5(24)]DEAAFN[S8][Phe(2-Cl)][Bta]Q-NH2
modifications: staple 1-4, 4-11
notes: as for B1
B15: I-463 (peptide)
peptide: Ac-[αAllylPro]DA[B5(21)]DEAAFN[PyrS3″]F[Bta]Q-NH2
modifications: staple 1-4, 4-11; also: earlier-eluting HPLC staple isomer
notes: as for B3
B16: I-453 (peptide)
peptide: Ac-[αAllylPro]DA[B5(21)]DEAA[Phe(2-F)]N[S8]F[Bta]Q-NH2
modifications: staple 1-4, 4-11
notes: as for B1
B17: I-450 (peptide)
peptide: Ac-[αAllylPro]DA[B5(21)]DEAA[2Thi]Q[S8][Phe(3-F)]WQ-NH2
modifications: staple 1-4, 4-11
notes: as for B1

Starred links: 1 amine or outer side, 2 acyl side, 3 side chain; linkers in the order of their positions; H or OH if unused. Positions of bridges follow the written chain, without caps; N, C: chain ends. Non-standard residues stand in square brackets, D forms with d. Primed or numbered codes have the meaning given here. B5(26) = 2-amino-2-(pent-4-en-1-yl)hept-6-enoic acid (bis-pentenylglycine), stitching residue carrying two staples, C=CCCCC(CCCC=C)(N[*:1])C(=O)[*:2]; PyrS3″ = (S)-3-amino-1-((hex-5-en-1-yloxy)carbonyl)pyrrolidine-3-carboxylic acid (stapling residue), C=CCCCCOC(=O)N1CC[C@@](N[*:1])(C(=O)[*:2])C1; B5(24) = 2-amino-2-(pent-4-en-1-yl)hept-6-enoic acid, 2,2-bis(4-pentenyl)glycine (stitching residue), C=CCCCC(CCCC=C)(N[*:1])C(=O)[*:2]; B5(21) = 2-amino-2-(pent-4-en-1-yl)hept-6-enoic acid, bis(4-pentenyl)glycine (stitching residue), C=CCCCC(CCCC=C)(N[*:1])C(=O)[*:2]; B5(6) = 2-amino-2-(pent-4-en-1-yl)hept-6-enoic acid (bis(4-pentenyl)glycine), stitching residue, C=CCCCC(CCCC=C)(N[*:1])C(=O)[*:2]; S(OMe) = O-methyl-L-serine, COC[C@H](N[*:1])C(=O)[*:2]; Phe(2-NO2) = N[C@@H](Cc1ccccc1[N+](=O)[O-])C(=O)O; Phe(2-Cl) = N[C@@H](Cc1ccccc1Cl)C(=O)O; Phe(2-OMe) = COc1ccccc1C[C@H](N)C(=O)O; Phe(3-F) = N[C@@H](Cc1cccc(F)c1)C(=O)O; Phe(4-F) = N[C@@H](Cc1ccc(F)cc1)C(=O)O; His(τ-Me) = Cn1cnc(C[C@H](N)C(=O)O)c1; Phe(2-F) = N[C@@H](Cc1ccccc1F)C(=O)O; Bta = N[C@@H](Cc1csc2ccccc12)C(=O)O; His(π-Me) = Cn1cncc1C[C@H](N)C(=O)O; αAllylPro = C=CC[C@@]1(C(=O)O)CCCN1; 2Thi = N[C@@H](Cc1cccs1)C(=O)O; S8 = C=CCCCCCC[C@](C)(N)C(=O)O

This assay addresses T1, full-length beta-Catenin (Uniprot ID P35222) (Homo sapiens (Human), UniProt P35222 1-781).
T1 construct: The assay protocol says full-length beta-Catenin (Uniprot ID P35222); tags are not described; also called bCat; B-Catenin
T1 sequence: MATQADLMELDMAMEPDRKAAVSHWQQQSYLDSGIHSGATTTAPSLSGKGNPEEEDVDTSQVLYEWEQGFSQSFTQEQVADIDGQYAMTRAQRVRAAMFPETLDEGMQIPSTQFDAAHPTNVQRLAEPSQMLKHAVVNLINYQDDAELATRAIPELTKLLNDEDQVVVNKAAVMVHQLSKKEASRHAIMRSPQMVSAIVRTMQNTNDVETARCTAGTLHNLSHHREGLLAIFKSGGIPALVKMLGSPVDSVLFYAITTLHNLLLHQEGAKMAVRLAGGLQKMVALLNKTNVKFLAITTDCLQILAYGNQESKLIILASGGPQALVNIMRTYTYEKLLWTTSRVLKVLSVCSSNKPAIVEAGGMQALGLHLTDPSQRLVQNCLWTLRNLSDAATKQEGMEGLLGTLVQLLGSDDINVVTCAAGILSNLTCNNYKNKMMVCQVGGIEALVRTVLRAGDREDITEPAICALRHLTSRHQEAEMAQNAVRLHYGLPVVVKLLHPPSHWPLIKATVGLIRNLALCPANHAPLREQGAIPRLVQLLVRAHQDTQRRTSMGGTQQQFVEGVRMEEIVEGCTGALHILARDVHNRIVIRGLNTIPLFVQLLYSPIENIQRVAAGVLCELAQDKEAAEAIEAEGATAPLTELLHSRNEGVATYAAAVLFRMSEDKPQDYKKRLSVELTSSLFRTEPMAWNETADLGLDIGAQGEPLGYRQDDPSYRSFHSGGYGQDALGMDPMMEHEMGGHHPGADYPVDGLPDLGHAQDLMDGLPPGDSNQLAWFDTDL
In words: fluorescence polarization competition: full-length beta-catenin + 5FAM-TCF4(10-53) probe, peptide titrated. How it is done:
The plate was incubated protected from light for 60 minutes at 20° C. prior to read. Reads were performed on a CLARIOstar plate reader (BMG Labtech) in duplicate, and data were fitted to a 1:1 binding model with hill slope using an in-house script. All provided concentrations are final concentrations.
On to B1, for which the EC50 worked out at 133 nM.

As for B2, the EC50 is 125 nM.

Take B3: the EC50 was found to be 27 nM. For the molecule B4, the EC50 was determined as 44 nM.

Take B5: the EC50 was found to be 27 nM. For B6 the value was 67.5 nM; for B7, 136 nM; for B8, 5000 nM.

For the molecule B9, the EC50 is 5000 nM. With B10 the figure was 5000 nM. For B11 the value was 83.5 nM. For B12 the value was 26 nM. On to B13, for which the concentration giving a half-maximal response (EC50) amounted to 57 nM. For B14 the value was 70 nM. For B15 the value was 92 nM. For B16 the value was 1550 nM; for B17, 3720 nM.
